Source: US20250320281A1

Assays:
HIV-1 APV17 Env (HIV-1) = test: cell-based or functional assay
[1] = target: HIV-1 MGRM-C-026 Env (HIV-1); test: cell-based or functional assay
[2] = target: Endo H treated JR-FL gp120 (HIV-1); test: ELISA, antigen-coated wells
[3] = target: HIV-1 93UG077 Env (pseudovirus) (HIV-1 isolate 93UG077 (clade A)); test: cell-based or functional assay
[4] = target: HIV-1 MGRM-D-018 Env (pseudovirus) (HIV-1 isolate MGRM-D-018 (clade D)); test: cell-based or functional assay
[5] = target: HIV-1 92TH021 Env (pseudovirus) (HIV-1 isolate 92TH021 (clade AE)); test: cell-based or functional assay
[6] = target: HIV-1 92BR020 Env (pseudovirus) (HIV-1 isolate 92BR020 (clade B)); test: cell-based or functional assay
[7] = target: HIV-1 Env of pseudovirus MGRM-AG-002 (subtype AG) (HIV-1); test: cell-based or functional assay
[8] = target: HIV-1 Env of isolate ZM249 (clade C pseudovirus) (HIV-1); test: cell-based or functional assay
[9] = target: HIV-1 Env of isolate CAP45 (clade C pseudovirus) (HIV-1); test: cell-based or functional assay
[10] = target: HIV-1 Env of isolate MGRM-F1-008 (clade F), on pseudovirus (HIV-1); test: cell-based or functional assay
[11] = target: HIV-1 Env of pseudovirus 93UG077 (subtype A) (HIV-1); test: cell-based or functional assay

Sequence of 1443_C16 (PG16) (TCN-116) (antibody) (VH): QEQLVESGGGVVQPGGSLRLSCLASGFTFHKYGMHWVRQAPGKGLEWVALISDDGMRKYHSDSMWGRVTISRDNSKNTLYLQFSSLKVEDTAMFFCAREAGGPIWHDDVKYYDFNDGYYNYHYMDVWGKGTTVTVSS
Sequence of 1443_C16 (PG16) (TCN-116) (antibody) (VL): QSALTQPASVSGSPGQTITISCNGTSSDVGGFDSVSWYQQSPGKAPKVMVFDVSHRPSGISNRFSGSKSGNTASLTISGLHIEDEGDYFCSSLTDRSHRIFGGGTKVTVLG

Substance: 4877_D15 (PGT-122) (antibody)
- Neutralization by PGT-122, IC50 (HIV-1 APV17 Env (HIV-1)): 0.522 mg/L
- Neutralization by PGT-122, IC80 (HIV-1 APV17 Env (HIV-1)): 1.76 mg/L
- Neutralization by PGT-122, IC90 (HIV-1 APV17 Env (HIV-1)): 3.58 mg/L
- Neutralization by PGT-122, IC95 (HIV-1 APV17 Env (HIV-1)): 6.92 mg/L
- Neutralization by PGT-122, IC50 [1]: 0.0089 mg/L
- Neutralization by PGT-122, IC80 [1]: 0.037 mg/L
- Neutralization by PGT-122, IC90 [1]: 0.0849 mg/L
- Neutralization by PGT-122, IC95 [1]: 0.181 mg/L

Substance: 4838_L06 (PGT-121) (antibody)
- EC50 [2]: > 10 mg/L

Substance: 5123_A06 (PGT-125) (antibody)
- Neutralization by PGT-125, IC50 [3]: 0.0262 mg/L
- Neutralization by PGT-125, IC80 [3]: 0.0926 mg/L
- Neutralization by PGT-125, IC90 [3]: 0.206 mg/L
- Neutralization by PGT-125, IC95 [3]: 0.487 mg/L
- Neutralization by PGT-125, IC50 [4]: 0.0382 mg/L
- Neutralization by PGT-125, IC80 [4]: 0.144 mg/L
- Neutralization by PGT-125, IC90 [4]: 0.339 mg/L
- Neutralization by PGT-125, IC95 [4]: 0.892 mg/L
- Neutralization by PGT-125, IC50 [5]: 0.0066 mg/L
- Neutralization by PGT-125, IC80 [5]: 0.0292 mg/L
- Neutralization by PGT-125, IC90 [5]: 0.0701 mg/L
- Neutralization by PGT-125, IC95 [5]: 0.157 mg/L
- Neutralization by PGT-125, IC50 [6]: 0.0214 mg/L
- Neutralization by PGT-125, IC80 [6]: 0.0738 mg/L
- Neutralization by PGT-125, IC90 [6]: 0.156 mg/L
- Neutralization by PGT-125, IC95 [6]: 0.323 mg/L

Substance: VRC01 (antibody)
- IC50, pseudovirus neutralization [7]: 0.95 mg/L

Substance: 1443_C16 (PG16) (TCN-116) (antibody)
- IC50 (neutralization, TZM-bl pseudovirus assay) [8]: < 0.01 mg/L
- IC50 (neutralization, TZM-bl pseudovirus assay) [9]: < 0.01 mg/L

Substance: PGV04 (antibody)
- IC50 (µg/mL), pseudovirus neutralization [10]: 1.03 µg/mL
- IC50, pseudovirus neutralization [11]: 0.083 mg/L
